B1: 21P (mcb2 oligoduplex) (dsDNA)
DNA 1: AACGAAGTGGCTAGAATATA
DNA 2: TATATTCTAGCCACTTCGTT
B2: 21Pmut (randomized mcb2 oligoduplex) (dsDNA)
DNA 1: AACGAGAGTAGGTCAATATA
DNA 2: TATATTGACCTACTCTCGTT

Key:
H6MobC221 (pC221 MobC) [1] = biological target: T1, H6MobC221 (pC221 MobC) (plasmid pC221, UniProt Q6V0Y1 1-132); assay: SPR
T1 sequence: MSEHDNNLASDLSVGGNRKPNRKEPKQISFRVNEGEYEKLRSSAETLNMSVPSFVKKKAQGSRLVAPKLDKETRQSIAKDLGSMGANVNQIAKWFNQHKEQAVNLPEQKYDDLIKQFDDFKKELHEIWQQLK

H6MobC221 (pC221 MobC) [2] = biological target: T1, H6MobC221 (pC221 MobC); assay: SPR; remark: listed apart in the source

Binder | Kd (H6MobC221 (pC221 MobC) [1]) | binding result (H6MobC221 (pC221 MobC) [2])
B1 | ~1800 nM | 
B2 |  | no binding

From publication PMC1513511
